Test results: the RNAGym collection of RNA variant scans (doi:10.1073/pnas.2313332121)

B1: TPR t1 (parent)
chain: GACCAAUCUGCCCUCAGAGCUCGAGAACAUCUUCGGAUGCAGAGGAGGCAGGCUUCGGUGGCGCGAUAGCGCCAACGUCCUCAACCUCCAAUGCAUCCCACCACAUGAUGAUGCCUGAAGAGCCUUGGUUUUUUG

Variants of: B1
Assay: polymerase ribozyme fitness, log enrichment relative to wild type (log ratio); higher = more active; in vitro selection for triplet polymerase activity
Method in brief: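 Mutant libraries for each subunit of a heterodimeric triplet polymerase ribozyme were made by PCR and then transcribed. Each library underwent one round of in vitro selection in triplicate: annealing with a biotinylated primer, the partner subunit and triplets, frozen incubation at −7 °C, gel excision of extended constructs, streptavidin-bead capture and RT-PCR. Input and output libraries were Illumina-sequenced, and only genotypes with ≥10 input reads and ≥1 read per output were kept. Fitness is the logarithm, base 2, of genotype enrichment over wild-type enrichment, computed from inverse-variance-weighted replicate averages.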
In the case of GACCAAUCUGCCCUCAGAGCUCGAGAACAUCUUCCGAUGCAGAGGAGGCAGGCUUCGGUGGCGCGAUAGCGCCAACGUCCUCAACCACCAAUGCAUCCCACCACAUGAUGAUGCCUGAAGAGCCUUGGUUUUUUG [G35C U87A], the “polymerase ribozyme fitness (log ratio)” value is reported as -5.04.
With GACCAAUCUGCCCUCAGAGCUCGAGAACAUCUUCCGAUGCAGAGGAGGCAGGCUUCGGUGGCGCGAUAGCGCCAACGUCCUCAACCUCCAAUACAUCCCACCACAUGAUGAUGCCUGAAGAGCCUUGGUUUUUUG [G35C G93A] the “polymerase ribozyme fitness (log ratio)” value was -4.92.
For GACCAAUCUGCCCUCAGAGCUCGAGAACAUCUUCCGAUGCAGAGGAGGCAGGCUUCGGUGGCGCGAUAGCGCCAACGUCCUCAACCUUCAAUGCAUCCCACCACAUGAUGAUGCCUGAAGAGCCUUGGUUUUUUG [G35C C88U], the “polymerase ribozyme fitness (log ratio)” value was -4.03.
In the case of GACCAAUCUGCCCUCAGAGCUCGAGAACAUCUUCUGAUGCAGAGGAGGCAGGCUUCGAUGGCGCGAUAGCGCCAACGUCCUCAACCUCCAAUGCAUCCCACCACAUGAUGAUGCUUGAAGAGCCUUGGUUUUUUG [G35U G58A C115U], the “polymerase ribozyme fitness (log ratio)” value is reported as -7.02.
For GACCAAUCUGCCCUCAGAGCUCGAGAACAUCUUCUGAUGCAGAGGAGGCAGGUUUCGGUGGCGCGAUAUCGCCAACGUCCUCAACCUCCAAUGCAUCCCACCACAUGAUUAUGCCUGAAGAGCCUUGGUUUUUUG [G35U C53U G69U G110U], the “polymerase ribozyme fitness (log ratio)” value was -4.63.
With GACCAAUCUGCCCUCAGAGCUCGAGAACAUCUUCAGAUGCAGAGGAGGCAGGCUUCGGUGGCGCGAUAGCGCCAACGUCCUCAACCUCCAAUGCAUCCCACCACAUGAUGAUGCCUGAAGAGCCUUGGUUAUUUG [G35A U131A] the “polymerase ribozyme fitness (log ratio)” value was -4.99.
For GACCAAUCUGCCCUCAGAGCUCGAGAACAUCUUCAGAUGCAGAGGAGGCAGGCUUCGGUGGCGCGAUACCGCCAACGUCCUCAACCUCCAAUGCAUCCCACCACAUGAUGAUGCCUGAAGAGCCUUGGUUUUUUG [G35A G69C], the “polymerase ribozyme fitness (log ratio)” value was -4.88.
For GACCAAUCUGCCCUCAGAGCUCGAGAACAUCUUCAGAUGCAGAGGAGGCAGGCUUCGCUGGCGCGAUAGCGCCAACGUCCUCAACCUCCAAUGCAUCCCACCACAUGAUGAUGCCUGAAGAGCCUUGGUUUUUUG [G35A G58C], the “polymerase ribozyme fitness (log ratio)” value was -3.4.
In the case of GACCAAUCUGCCCUCAGAGCUCGAGAACAUCUUCAGAUGCAGAGGAGGCAGGCUACGGUGGCGCGAUAGCGCCAACGGCCUCAACCUCUACUGCAUCCCACCACAUGAUGAUGCCUGAAGAGCAUGGUUUUUUUG [G35A U55A U78G C89U A91C C124A U126G G128U], the “polymerase ribozyme fitness (log ratio)” value is reported as -6.76.
In the case of GACCAAUCUGCCCUCAGAGCUCGAGAACAUCUUCAGAUGCAGAGGAGGCAGGCUUCGGUGGCGCGAUAGCGCCAACGUCCUCAACCUCCAAUGCAUCCCAUCACAUGAUGAUGCAUGAAGAGCCUUGGUUUUUUG [G35A C101U C115A], the “polymerase ribozyme fitness (log ratio)” value is reported as -3.56.
With GACCAAUCUGCCCUCAGAGCUCGAGAACAUCUUCAGAUGCAGAGGAGGCAGGCUUCGGUGGCGCGAUAGCGCCAACGUCCUCAACCACCAAUGCAUCCCACCACAUGAUGAUGCCUGAAGAGCCUUGGUUUUUUG [G35A U87A] the “polymerase ribozyme fitness (log ratio)” value was -3.5.
For GACCAAUCUGCCCUCAGAGCUCGAGAACAUCUUCCGAUGCAGAGGAGGCAGGGUUUGGUGGCGCGAUAGCGCCAACGUCCUCAACCUCCAAUGCAUCCCACCACAUGAUGAUGCCUGAAGAGCCUUGGUAUUUUG [G35C C53G C56U U130A], the “polymerase ribozyme fitness (log ratio)” value was -6.86.
For GACCAAUCUGCCCUCAGAGCUCGAGAACAUCUUCAGAUGCAGAGGAAGCAGGCUUCUGUGGCGCGAUAGCGCCAACGUCCUCAACCUCCAAUGCAUCCCACCACAUGAUGAUGCCUGAAGAGCCUUGGUUUUUUG [G35A G47A G57U], the “polymerase ribozyme fitness (log ratio)” value was -3.97.
In the case of GACCAAUCUGCCCUCAGAGCUCGAGAACAUCUUCUGAUGCAGAGGAGGCAGGCUUCGGUGGCGCGAUAGCGCUAACGUCCUCAACCUCCAAUGCAUCCCACCACAUGAUGACGCCUGAAGAGCCUUGGUUUUUUG [G35U C73U U112C], the “polymerase ribozyme fitness (log ratio)” value is reported as -2.9.
With GACCAAUCUGCCCUCAGAGCUCGAGAACAUCUUCAGAUGCAGAGGAGGCAGGCUUCGGUCGCGCGAUAGCGCCAACGUCCUCAACCUCCAAUGCAUCCCACCACAUGAUGAUGCCUGAAGAGCCUUGGUUUUUUG [G35A G60C] the “polymerase ribozyme fitness (log ratio)” value was -5.49.
For GACCAAUCUGCCCUCAGAGCUCGAGAACAUCUUCCGAUGCAGAGGAGGGAGGCUUCGGUGGCGCGAUAGCGCCAACGACCUCAACCUCCAAUGCAUCCCACCACAUGAUGAUGCCUGAAGAGCCUUGGUUUUUUG [G35C C49G U78A], the “polymerase ribozyme fitness (log ratio)” value was -5.52.
For GACCAAUCUGCCCUCAGAGCUCGAGAACAUCUUCAGAUGCAGAGCAGGCAGGCUUCGGUGGCGCGAUAGCCCCAACCUCCUCAACCUCCAAUGCAUCCCACCAUAUGAUGAUGGCUGAAGAGCCUUGGUUUUUUG [G35A G45C G71C G77C C104U C114G], the “polymerase ribozyme fitness (log ratio)” value was -5.08.
For GACCAAUCUGCCCUCAGAGCUCGAGAACAUCUUCUGAUGCAGAGGAGGCAGGCUUCGGUGGCUCGAUAGCGCCAACGUCCUCAACCUCCAAUGCAUCCCACCACAUGAUGAUGCCUGAAGAGCCUUGGUUUUUUG [G35U G63U], the “polymerase ribozyme fitness (log ratio)” value was -6.36.
With GACCAAUCUGCCCUCAGAGCUCGAGAACAUCUUCUGAUGCAGAGGAGGCAGGCUUCGGUGGCGCGAUAUCGCCAACGUUCUCAACCUCCAAUGCAUCCCACCACAUGAUGAUGCCUGAAGAGCCUUGGUUUUUUG [G35U G69U C79U] the “polymerase ribozyme fitness (log ratio)” value was -3.35.
For GACCAAUCUGCCCUCAGAGCUCGAGAACAUCUUCUGAUGCAGAGGAGGCAGGCUUCGGUGUCGCGAUAGCGCCAACGUCCUCAACCUCCAAUGCAUCCCACCACAUGAUGAUGCCUGAAGAGCCUUGGUUUUUUG [G35U G61U], the “polymerase ribozyme fitness (log ratio)” value was -5.28.
In the case of GACCAAUCUGCCCUCAGAGCUCGAGAACAUCUUCUGAUACAGAGGAGGCAGGCUUCGGUGGCGCGAUAGCGCCAACGUCCUCAACCUCCAAUGCAUCCCACCACAUGAUGAUGCCUGAAGAGCCUUGGUUUUUUG [G35U G39A], the “polymerase ribozyme fitness (log ratio)” value is reported as -5.13.
